Reference: patent publication US20030087395A1, “Cardiotrophin-like cytokine” (Human Genome Sciences, Inc., priority 1997, published 2003)

Key:
Assay type in all cases: cell-based
[1] = tested on: M1 cells; test: Protein tyrosine phosphorylation after anti-gp130 immunoprecipitation; details: M1 cells treated with CLC or LIF supernatant; band of apparent molecular mass 32 kDa
Experimental: Because of the wide range of known factors capable of stimulating tyrosine kinase activity, identifying whether CLC or a molecule induced by CLC is capable of activating tyrosine kinase signal transduction pathways is of interest. Therefore, the following protocol is designed to identify such molecules capable of activating the tyrosine kinase signal transduction pathways.
Seed NIH-3T3 cells in 15 cm^2 cell culture plates in DMEM supplemented with Pen/Strep, 10% FBS, 25 mM Hepes. […] At the point the experiment begins, the cells should be 80-90% confluent. Collect M1 cells in 50 ml tube and centrifuge 1000 rpm for 5 min. Resuspend the cell pellet in “quiescing medium” which is RPMI supplemented with Pen/Strep, glutamine. (It is important to note that quiescing medium contains neither serum nor growth factors.) Centrifuge again at 1000 rpm for 5 min to wash the cells. Again, resuspend the cells in quiescing medium. Incubate the M1 cells in quiescing medium for 16 hours at 37° C.
Pre-warm quiescing medium (for Ml cells) and a metal tube rack to 37° C. Pre-cool quiescing media (for NIH-3T3 cells) and sterile Eppendorf tubes containing 0.5 ml of sample. […] Resuspend M1 cells to 5.0×10^7 cells per 0.5 ml quiescing media. Place all tubes on per warmed metal rack and leave at 37° C. until ready to begin. Add samples to these pre-aliquoted tubes. […]

[2] = tested on: SRE element in TF-1 cells; test: SRE/SEAP reporter assay in TF-1 cells; details: supernatants from 293T cells transfected with CLC expression vector, SEAP reporter
From the text: (§1) Therefore, activation of the Jaks-STATs pathway, reflected by the binding of the GAS or the ISRE element, can be used to indicate proteins involved in the proliferation and differentiation of cells. For example, growth factors and cytokines are known to activate the Jaks-STATs pathway (see Table below). Thus, by using GAS elements linked to reporter molecules, activators of the Jaks-STATs pathway can be identified. Serum response elements (SREs) play a similar role in signal transduction although the DNA sequence which mediates a serum response is unique from the GAS or ISRE sequences.
(§2) Other constructs can be made using the above description and replacing GAS with a different promoter sequence. For example, construction of reporter molecules containing NF-kB and EGR promoter sequences are described in Examples 6 and 8. However, many other promoters can be substituted using the protocols described in these Examples. For instance, SRE, IL-2, NFAT, or Osteocalcin promoters can be substituted, alone or in combination (e.g., GAS/NF-κB/EGR, GAS/NF-κB, Il-2/NFAT, or NF-κB/GAS). Similarly, other cell lines can be used to test reporter construct activity, such as HeLa (epithelial), HUVEC (endothelial), Reh (B-cell), Saos-2 (osteoblast), HUVAC (aortic) or cardiomyocyte.
(§3) Separate the Optiplates to avoid uneven heating.
(§4) An increase in chemiluminescence indicates reporter activity.

[3] = tested on: GAS element in M1 cells; test: SEAP reporter assay, SRE experiment repeated in M1 cells; details: M1 cells replacing TF-1 cells, supernatants from 293T cells transfected with CLC expression vector
From the text: as §1, §2, §3, §4

[4] = tested on: GAS element in TF-1 cells; test: GAS/SEAP reporter assay in TF-1 cells; details: GAS/SEAP construct in TF-1 cells; supernatants from 293T cells transfected with CLC expression construct
From the text: (§5) The sequence of the 5' primer is: [NT] ID NO:16). […] The sequence of the 3' primer is: [NT] ID NO:17). […] Separate the Optiplates to avoid uneven heating. […] An increase in chemiluminescence indicates reporter activity.

[5] = tested on: GAS element in M1 cells; test: GAS/SEAP reporter assay in M1 cells; details: GAS/SEAP construct in M1 cells; supernatants from 293T cells transfected with CLC expression construct
From the text: as §5

[6] = tested on: M1 cells; test: M1 cell proliferation by BrdU incorporation; details: dose of 100 μL, 72 hours
Experimental: The effect of CLC on cellular proliferation can be assayed in M1 cells by BrdU incorporation. 1×10^4 cells/100 μL are dispensed into 96-well cell culture plates and labeled with 10 μL BrdU. CLC is added to the cells at several doses (0, 5, 25, and 100 μL) and LIF is added to the cells as a positive control at a dose of 100 μL. The cells are allowed to grow for 72 hours at 37° C. The amount of BrdU incorporation is determined by the Cell Proliferation ELISA BrdU colorimetric kit (Boehringer Mannheim).

[7] = tested on: Primary cardiomyocytes; test: Cardiac myocyte hypertrophy, cell counts in culture
Experimental: (§6) Primary cardiomyocytes, primary neuronal cultures, or other cells are plated at a low density and cultured using standard culturing techniques. […] Cultures are evaluated at a point between 48 and 72 hours post-treatment by counting the number of cells in four non-overlapping fields in three independent cultures and averaging the results.

[8] = tested on: primary neuronal cultures (sympathetic neuron counts); test: Neuron counts in primary neuronal cultures
Experimental: as §6

[9] = counted 48 to 72 hours post-treatment, four fields in three independent cultures, averaged

B1: CLC: human polypeptide named cardiotrophin-like cytokine, IL-6 cytokine family member; tested as supernatant of transfected 293T cells (protein)
chain: MDLRAGDSWGMLACLCTVLWHLPAVPALNRTGDPGPGPSIQKTYDLTRYLEHQLRSLAGTYLNYLGPPFNEPDFNPPRLGAETLPRATVDLEVWRSLNDKLRLTQNYEAYSHLLCYLRGLNRQAATAELRRSLAHFCTSLQGLLGSIAGVMAALGYPLPQPLPGTEPTWTPGPAHSDFLQKMDDFWLLKELQTWLWRSAKDFNRLKKKMQPPAAAVTLHLGAHGF
modifications: homo sapiens; signal (-27)..(-1)
notes: human polypeptide named cardiotrophin-like cytokine, IL-6 cytokine family member; tested as supernatant of transfected 293T cells
band of tyrosine-phosphorylated protein in cell extracts [1]: produced a band of phosphorylated protein
activation of the SRE element over the negative control level [2]: 2.6 fold
induction of the GAS element (SRE experiment repeated) [3]: 3.2 fold
activation of the GAS element [4]: 4.6 fold
induction of the GAS element [5]: 4.5 fold
inhibition of M1 cell proliferation with respect to the negative control [6]: 3.1 fold
No. Active Myocytes [7, 9]: 50
reduction of cardiomyocyte hypertrophic activity of mock-transfected 293T supernatant ([7]; supernatants from CLC-transfected 293T cells, 48 to 72 hours post-treatment): 2 fold
No. Neurons [8, 9]: 86
change of sympathetic neuron counts ([8]; samples treated with CLC-transfected supernatants): clear increase
